{
  "source": "patent US20230279147A1",
  "about": "(AELAN CELL TECHNOLOGIES, published 2023)",
  "molecules": {"B1": {"name": "Clone A (RW24), recombinant rabbit anti-H1.0K180me2 monoclonal IgG antibody (antibody, V domains shown)", "VH": "QSVEESGGRLVTPGTPLTLTCTVSGFSLNNYVMMWVRQAPGEGLEWIAAITTGGTTYYANWAKGRFTISKTSTTVDLKIISPTTEDTATYFCARDLYGDTSDDIWDAFDPWGPGTLVTVSS", "VL": "DPVLTQTPSSVSAAVGGTVTISCQSSESVYKNNNLAWYQQKPGQPPKLLIYSASTLASGVPSRFKGSGSGTQFTLTISGVQCDDAATYYCLGVYSDIFAF", "notes": "Tested as a full-length recombinant rabbit monoclonal IgG"}},
  "key": {"[1]": {"system": "recombinant human H1.0 protein, full length, unmethylated"}, "H1.0K180me2 peptide": {"target": "T1, H1.0K180me2 peptide (human)", "T1 construct": "also called H1.0Kme2 peptide", "T1 peptide": "CAKPVKASKPKKAKPVK(Me2)PK", "test": "ELISA on coated peptides, compared at the antibody concentration that gives the threshold O.D. 1.5", "description": "The specificity of the recombinant rabbit anti-H1.0K180me2 monoclonal IgG antibody clones for H1.0K180me2 peptide was determined using ELISA in FIG. 2A. Wells were coated with H1.0K180me2 peptide; 50 ul of peptide solution (5 ug/ml) was used to coat each well. 100 ul of each clone antibody was added to wells in a 2× dilution series. Curves for each peptide were generated by plotting antibody concentration against measured O.D at 450 nm. In order to directly compare the binding efficiencies of the different clones, a threshold cut-off was selected that intersected the linear range of each of the clone titration curves (horizontal dashed line at O.D. 1.5). Clone A (RW24) has the highest binding affinity for H1.0K180me2 peptide.\nThe non-specific binding of the antibody clones to unmodified H1.0 peptide was also determined by ELISA as above in FIG. 2B. Clones D (RW28) and E (RW36) both bound to unmodified H1.0 peptide with high affinity. At the threshold concentration calculated above, Clone A (RW24) was 20× more efficient at binding H1.0K180me2 peptide than unmodified H1.0 peptide, Clone B (RW6): 23×, Clone C (RW37): 22×, Clone D (RW28): 2×, Clone E (RW36): 5×."}},
  "note": "Where no end group is shown, it is not given here. Me2 = dimethyl on Lys side chain (K(me2))",
  "data": [
    {"molecule": "recombinant G9A (methyltransferase)", "values": [
      {"measurement": "in vitro methylation reaction analysed by LC-MS", "setting": "[1]", "value": "G9A specifically methylates several C-terminal lysine residues, including H1.0K180me2"}
    ]},
    {"molecule": "B1", "values": [
      {"measurement": "fold more efficient at binding H1.0K180me2 peptide than unmodified H1.0 peptide", "setting": "H1.0K180me2 peptide", "value": 20, "unit": "×"}
    ]}
  ]
}
